This note sets out measurements from patent publication US20230242902A1, “A HIGHLY ERROR-PRONE […] R[…] FOR TARGETED CONTINUOUS EVOLUTION IN VIVO” (The Regents of the University of California, priority 2017, published 2023).

Positions count from the first letter of the chain named. In names and notes the source's numbering stands.

Experiment [1] concerns p2. Briefly: p2 copy number by mKate2 fluorescence calibrated with qPCR. Type of experiment: cell-based, S. cerevisiae. The note with it: GA-Y021. As to the method:
To precisely measure p1 and p2 per-base substitution mutation rates, several modifications were made to the small-scale protocol. First, 36 replicates were performed for reconfirmation of candidate TP-DNAP2 mutators, and 48 replicates for genomic and mutual orthogonality experiments. Titers were also determined for each strain after spot plating by pooling the residual volume from 4 replicates and plating dilutions on YPD. The expected number of LEU2 functional mutants (m) was determined by the Ma-Sandri-Sarkar maximum likelihood estimator (as calculated by the FALCOR tool and corrected for partial plating (Foster, 2006, Methods Enzymol, 409:195-213; Sarkar et al., 1992, Genetica, 85:173-179; Hall et al., 2009, Bioinformatics, 25:1564-1565). The mean mKate2 fluorescence was determined from 50,000 event counts on Attune™ NxT Flow Cytometer and converted to p2 copy number by using a calibration curve. To determine per-base substitution rates, the corrected m was normalized to the average cell titer, the p2 copy number, and the target size for functional leu2* reversion (2.33 bp). […]
A standard curve relating p2 copy number to mKate2 fluorescence was prepared by combining quantitative PCR with flow cytometry. […] All extracts were diluted 4000-fold for use in two distinct qPCR reactions, one to quantify p2-encoded leu2* and the other to quantify the genomic copy of LEU3. […]
Background: Real-time PCR tracks product formation cycle by cycle.

Experiment [2] concerns p1. Briefly: p1 copy number by p1-encoded mKate2 fluorescence. The class given is cell-based, S. cerevisiae. In short, it runs like this:
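p1 copy number came from mKate2 fluorescence of saturated OR-Y24 cultures (triplicates, regrown from 1:10,000), read by flow cytometry and converted through a linear curve calibrated by qPCR (LEU2 against genomic LEU3). For small-scale tests, OD600-normalized plate-reader fluorescence (588/633 nm) was scaled to a w.t. TP-DNAP1 control.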

B1: WT: wild-type Kluyveromyces lactis DNA polymerase TP-DNAP2, SEQ ID NO:13 (protein, listed as Kluyveromyces lactis)
chain: MNDELAFLNSQIDDYSDDIEFLRTEVFRINRYSKSIYSLMKNSSKEAIKETIEFNKYGQEIHSKIKEKEISLIEAIKLMEKKYKYLRSLNKTKDKSKKKKIHTKDIETLKTIYKTKADFDIRNFKNAETFTYENYSLLIPSEKELIDLIPEIEEDYSYYFYVSLTITGPTIFGGVTRKVPIIDTYGDINKDFYNKIKENITKVLDRVPFYEEKESEIICKKVLITLTVNKWESIDKWYKNVKSKSKKFKDFTLFLASDTSKNCVQQCVEYLGGKWNTNYSLEKMIPQQKIVTYIPLLMDIQYVQSMEDLISDFDEPNTDCKNIARLLKWNGHMGVITKIDKDVKINRIQRKRIIDVENKEVKEVFFDIESFSDETKHQIPYLICWSYLGELYYRTGKNCIKEFVEEILSYNVDIILYAWYGSGYDYQHVLPYMKSKCIKDKYIIKNNMITYGELYYENAIIYLKDPYLFILTSLDKASKAFNVINKGEFPHSIIHSWEDLNKILPNWVKIQKRMIEYKDDNKLNIYYKNIEIFENDRNYNTILENAIEYCKVDVLAMEKVWIKFKKLLEKNLNITVSVKTFTLSQLSMKIMESKLPKYVKLYVPTLEEYSKIRNAIYGGRVISKNGIYEENIVYADVVSLYPSAMKLLKHSYGKPKLVDYIDFEKHGIYRVTLLNKHDQEPKNYLNFVPRRINRKLTWEWFKIHEGWYHTYDLIIAKSEGFDIYCHEGFEYPEKDYIFNDFIDTLYSMKETHTACSCEEQPCPIRMVAKIALNGGGYGKFVQKPIDKEIYIVKRDVVAGECDKLQENENGEICIGKRLVKRPLFYNLDSENYDKMIIEKEDEPIYSTQCGISILSASRYRLYKLCKQFENIDIIYSDTDSIFVKQKSVDWELFKSKCGSELGQLDSTIDDTKNAIISKMYIGGAKMYAFEYLNNKNKLITKLHCKGVPNYMLSLNQFKYLMESPDNTIAYKFEIIRRKLVNVITKDLIKDIKQT
Consider B1, for which the “p2 copy number per cell” value in experiment [1] stood at 128.

B2: TP-DNAP1-4-2: TP-DNAP1 variant (L477V, L640Y, I777K, W814N), encoded by SEQ ID NO:11 (protein, listed as Kluyveromyces lactis)
chain: MDYKDKALNDLRNVYADFDSLPLDFRQILIKDRATLLQKEDVEKKILERQEDAKKYAEYLKQSEIPERISLPNIKRHKGVSISFEETSEDMVLEPRPFIFDGLNIRCFRRETIFSLKNKILNMVKESSSFKNVSRQSVSFMYFKIFNKGKVIASTKSVNIYEDKIDERLEDLCNNFDDVLKKIIDVTYGYESLFVSETYSYVIFYAKSIYFPQPRCVNNWGNNIPNILTFDSFKLFTANKNNVSCIKQCSRFLWQKDFNTLEEMIEYKNGNICIVTPQLHINDVRDIKSFNDIRLYSESPIKTFSVIDNTITYLFYFKEHLGVIFNITKSRHDRRVTKFSPLSKFSDVKNITVCFDIESYFDPEKESNQVNIPFICCASIIYNKVIGNIVDFEGRDCVAQMIEYVVDICGELNISSVELIAHNGGGYDFHYILSSMYNPAAIKNILIRNNSFISFNFAHDGVKFSVKDSYSFLLCSVANASKAFLNEETFKKTDFPHHDLKTADDLYKVYKEWSSVNTEINHVVEKEKLLITSEHIVNFTKNDKSKTLIEWSKDYCRNDVLVLSKVWLEFKNAVEDIFNCELVDQTMTLAGLSYKLFQANMPFDVELRHPNKEDYFNMREALIGGRCISVNGIYKDVLCYDVKSLYPASMAFYDQPYGSFKRVSSRPKDELGIYYVRVTPNRNNKSNFFPIRSHNKITYNNFEESTYIAWYTNVDIDIGLSEGHNIEYIPFDSYGNIGYSWSKKGKIFEKYIKDVLYKLKIKYEKQNNKVKRNVIKKIMNSLWGKFAQKWVNFEYFIKSEDDIDFESEEAYKINDTDFMLIKKIKESTYSSKPIQNGVFTLSWARYHMKSIWDAGAKEGAECIYSDTDSIFVHKEHFKKNAKFMLNGLKVPIIGSEVGQLELECEFDKLLCAGKKQYMGFYTYFQDGKPCIKEKKRFKGIPSNYIIPELYAHLLSGADKEAKIQFLKFRREWGSVKGYIENKTVKAT
The molecule B2 showed a p1 copy number in experiment [2] (sustained by TP-DNAP1 variant) of around 5.

B3: w.t.: wild-type Kluyveromyces lactis DNA polymerase TP-DNAP1, SEQ ID NO:1 (protein, listed as Kluyveromyces lactis)
chain: B2 chain with V477L, Y640L, K777I, N814W
As to B3, the “Fold-change of p1 copy number over w.t.” value in experiment [2] (G410 (w.t.) background) was found to be 1.0 ± 0.27 fold; in experiment [2] (variant additionally carrying G410H) it was 1.53 ± 0.33 fold.
